Tests used:
[1] = target: T1, human GITR (hGITR), soluble analyte (human, UniProt Q9Y5U5 26-162); test: SPR (Biacore T200), 37 C; antibody captured on anti-human Fc chip, GITR as analyte; 1:1 Langmuir fit
T1 sequence: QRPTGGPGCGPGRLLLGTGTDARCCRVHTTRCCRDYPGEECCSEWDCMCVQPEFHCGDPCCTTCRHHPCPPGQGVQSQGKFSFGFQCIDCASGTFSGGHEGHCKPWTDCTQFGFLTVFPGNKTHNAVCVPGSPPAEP
Description: (§1) The sensor chip preparation was performed at 25° C. with a running buffer of 10 mM HEPES, 150 mM NaCl, 0.05% (v/v) Tween-20, pH 7.4. An anti-human Fc sensor chip was made by activating all flow cells of a Biacore CM4 sensor chip with a 1:1 (v/v) mixture of 400 mM EDC and 100 mM NHS for 7 minutes, at a flow rate of 10 μL/min. An anti-human Fc reagent (Goat Anti-Human IgG Fc, SouthernBiotech Catalog #2081-01) was diluted to […] in 10 mM Sodium Acetate pH 4.5 and injected on all flow cells for 7 minutes at 20 μL/min. All flow cells were blocked with 100 mM ethylenediamine in 150 mM Borate buffer pH 8.5 for 7 minutes at 10 μL/min.
(§2) Antibodies were captured from undiluted supernatants onto downstream flow cells (flow cells 2, 3 and 4) at a flow rate of 10 μL/min for 2 minutes. Different antibodies were captured on each flow cell. Flow cell 1 was used as a reference surface. Following capture of antibodies, analyte (buffer, hGITR, or cyGITR) was injected at 30 μL/min on all flow cells for two minutes. After the analyte injection, dissociation was monitored for 10 minutes followed by regeneration of all flow cells with three 1-minute injections of 75 mM Phosphoric Acid. For each captured antibody, the following analyte injections were performed: buffer, 20 nM hGITR, 200 nM hGITR, 20 nM cyGITR and 200 nM cyGITR. Buffer cycles were collected for each captured antibody for double-referencing purposes (double-referencing as described in Myszka, J. Mol. Recognit. 12:279-284 (1999). The double-referenced sensorgrams were fit globally to a simple 1:1 Langmuir with mass transport binding model.

[2] = target: T2, cynomolgus GITR (cyGITR), soluble analyte (cynomolgus); test: as above
T2 construct: Soluble analyte in SPR; construct not described; also called cGITR
Description: as §1, §2

human GITR on cells = target: T3, human GITR on cells (human, UniProt Q9Y5U5 26-162); test: flow cytometry on human T cells activated 48 h with CD3/28 beads; unlabeled antibody detected with APC goat anti-mouse Fc gamma F(ab')2
T3 construct: Endogenous on primary human T cells and Tregs, or transfected into Jurkat and 3A9 cells
T3 sequence: T1 sequence
From the text: Primary human lymphocytes were isolated from concentrated whole blood provided by the Stanford Blood Bank by first diluting blood 1:4 in Phosphate Buffered Saline (PBS, without Ca2+ and Mg2+). Peripheral Blood Mononuclear Cells (PBMC) were isolated using a Ficoll gradient underlay (Ficoll-Paque PLUS, GE Healthcare Life Sciences, Pittsburgh, Pa.). The harvested buffy layer was washed twice with PBS and counted. Cells were resuspended at 50*10e6c/mL in PBS+2% Fetal Bovine Serum (FBS) and processed with CD3 negative enrichment kit (Stem Cell Tech Vancouver, BC) according to manufacturer's instructions. After enrichment, cells were counted and frozen in aliquots of 10-20*10e6 in 90% FBS 10% DMSO freeze media for future use. For activation, a vial of cells from a donor T cell was thawed and rested overnight in R10c (RPMI 1640+10% FBS+1×NEAA+1×Sodium Pyruvate+1×Pen-Strep) at 1*10e6 cells/mL in a T75 flask. Cells were counted and stimulated for 48 hours with Dynabeads Human CD3/28 T cells activating beads at a 1:1 bead to cell ratio (Thermo Fisher). After 48 hours the cells were removed from media and washed with 1×PBS. Cells were titrated into a 96 well plate where they were stained with unlabeled mouse anti-human GITR antibodies (100-0.001 ug/mL) in PBS and incubated for 30 minutes at 37° c. […]

Kd [1]: 2.2 nM | koff [1]: 0.00077 s⁻¹ | kon [1]: 350000 M⁻¹ s⁻¹ | t1/2 [1]: 15 min | Kd [2]: > 100 nM | koff [2]: 0.0073 s⁻¹ | t1/2 [2]: 1.6 min | EC50 (read off the curve) (human GITR on cells): ~0.07 µg/mL
B1: m10H2 (antibody, V domains shown)
VH: QVQLQQSGAELMKPGASVKISCTATGYTISRYWIEWVKQRPGHGLEWIGEILPGSGVTNYNEKFKGKATFTADTSSNTAYMQLSSLTSEDSAVYSCARKGTYYAMDYWGQGTSVTVSS
VL: DILLTQSPAILSVSPGERVSFSCRASQSIGTSIHWYQQRTNGSPRLLIKYASESVSGIPSRFSGSGSGTDFTLFINSVESEDIADYYCQQTYSWPATFGAGTKLELK
notes: In ADCC it is called hIgG1; also called anti-human GITR antibody m10H2; A647 labeled m10H2

Reference: patent US20200031947A1 (RINAT NEUROSCIENCE, published 2020)
